A short description of this data set: soluble on expression in E. coli; label from the status in PepcDB or PDB records.
With “MKIAYLGPKGSFSHHVVQTAFPHEELQAFANITDVIKAYEQGLVNYSVVPVENSIEGSVHETLDYLFHQAHIQAVAEIVQPIHQQLMVVPGHTKIEKIFSHPQALAQGKKFIDEQYPEAQIEVTASTAYAARFISEHPDQPFAAVAPRSSAEEYGLELIAEDIQEMEANFTRFWVLGAEKP”, the “soluble on expression in E. coli” value was “not soluble”.

Consider “MKIDLPPLRQFLNRLLALTIRMQNVIFERFELLLSQQIETAIANGIFEAGVETLRAERFTIESCESVYTHPDTGSVTNYLKVEQVQRNNIRTAVEMLEFAAKYQGQLMVNQKSSNAAVSIPTHSIFDCDGGVVPRVLLVRPQKETRVPVEQLESSTWQQVSAEEFVTAWSREVDELPRFTTDYLHLVTGILLPIWKILPQKNSRVFRLQTSDGQKILGRVVHASDIQTVTEQLGLKNKLLSPAELEHHHHHH”, for which the “soluble on expression in E. coli” value is reported as “not soluble”.

Take “MKIEELIAIRRDLHRIPELGFQEFKTQQYLLNVLEQYPQDRIEIEKWRTGLFVKVNGTAPEKMLAYRADIDALSIEEQTGLPFASEHHGNMHACGHDLHMTIALGIIDHFVHHPVKHDLLFLFQPAEEGPGGAEPMLESDVLKKWQPDFITALHIAPELPVGTIATKSGLLFANTSELVIDLEGKGGHAAYPHLAEDMVVAASTLVTQLQTIISRNTDPLDSAVITVGTITGGSAQNIIAETAHLEGTIRTLSEESMKQVKERIEDVVKGIEIGFRCKGKVTYPSVYHQVYNTSGLTEEFMSFVAEHQLATVIEAKEAMTGEDFGYMLKKYPGFMFWLGADSEHGLHHAKLNPDENAIETAVHVMTGYFSVYAN”: the “soluble on expression in E. coli” value is listed as “not soluble”.

As for “MKIESAVEISKTATDFHTALDASSVIGSDRVDQLKSILNLTKSDTALLESNITQAKQLKITLDAQLQQRKALVDEYKSKLTVLEGSYMRKSAEVQRLQNELQNAQKAHAMKATTAPNEKNQANCSIS”, the “soluble on expression in E. coli” value is “not soluble”.

On to “MKIMIFICGEGLGHTSRCLALGKELLNAGHEIKFGAYGYSKELVEKTGYTAQEIPSEIKLVGKAGSLDLTGSIEATLKSAQLLGGPKLLKLLREFKPDVVVSDSYYLGTLAAMVLKLPVYLIINQSNMEEFFKNRGVPVRIIGKLTKKFYKEVFEKTDKILEHHHHHH”, for which the “soluble on expression in E. coli” value is on record as “not soluble”.

On to “MKINTALGVAAGKSAHYLLSKMGRGSTYPGSLALKFDKDILDTIAKDYEIVVVTGTNGKTLTTALTVGILKEAFGQVVTNPSGANMITGIVSTFLTAKKSKSGKKIAVLEIDEASLPRITQYIKPSLFVFTNIFRDQMDRYGEIYTTYQMILDGAANAPQATILANGDSPLFNSKSVTNPVQFYGFNTDKHEPRLAHYNTEGILCPKCQAILTYRLNTYANLGDYTCPNCDFERPNLDYALTRLTHLTNTSSGFVIDGQQYNINVGGLYNIYNALAAVSVAEYFGVEPSQIKDGFDKSRAVFGRQETFTIGNKKCTLVLIKNPVGASQALDMIKLAPYPFSLSVLLNANYADGIDTSWIWDANFETILTMNIPEIFAGGVRHSEIARRLRVTGYDEKRIKQADKLQDIMTMIEQQETEHAYILATYTAMLEFREILANHNAIRKEMN”, for which the “soluble on expression in E. coli” value is “not soluble”.

“MKIRSQVGMVLNLDKCIGCHTCSVTCKNVWTGREGMEYAWFNNVETKPGIGYPKNWEDQQEWQGGWVRDVNGKIRPRLGGKMGVISKIFANPVIPQIDDYYEPFTFDYQHLHNAPESKHQPTARPRSLIDGKRMDKVIWGPNWEELLGGEFEKRARDRNFDNIQKEMYGQFENTFMMYLPRLCEHCLNPSCVATCPSGAIYKREEDGIVLIDQDKCRGWRLCISGCPYKKIYFNWKSGKSEKCIFCYPRIESGQPTVCSETCVGRIRYLGVLLYDADRIEEAASTEHETDLYERQCDVFLNPHDPAVIEEALKQGIPQNVIDAAQRSPVYKMAMDWKLALPLHPEYRTLPMVWYVPPLSPIQSYADAGGLPHNGNILPAVETLRIPVQYLANMLSAGDTGPVIRALKRMMAMRHYMRSQTVEGVTDTRAIEEVGLSIQQVEEMYRYLAIANYEDRFVIPTSHREMARDAFPERNGCGFTFGDGCHGSDTKFNLFNSSRIDAINITEVRDKAEGE”: the “soluble on expression in E. coli” value is given as “not soluble”.

On to “MKISIICPLYNAENYIMSLHNKILEQEKPEGTEVEVSYVLTRCKDKTEEMLKNMNLQYTLIEPKDFSHSKTREMMAFKSTGDIIVFISQDVMMKNNFWLKNLVQPIIDGECEASFSRQLCTNNTIEKYIREKNYPEESRVVSKKDINKYGLLTFFYSDASSAVKTSVYKELNGYDNKRLLINEDMYFAEKLIQAGYRIKYCSDSEVYHSHVFTLKSLYERYFDTGVFFRQNSQFLNYKGNKSGKDLAIHVLKRSLEDKNFKVTLNILPNFGARFIGSFLGKKYESLPRSFVMASSMSKKVYSQILEHHHHHH”, for which the “soluble on expression in E. coli” value was “soluble”.

For the sequence “MKITAIHLYAIRLPLRNPFVISYGSYSDMPSIIVKMETDEGIIGYGEGVADDHVTGESWESTFHTLKHTLTPALIGQNPMNIEKIHDMMDNTIYGVPTAKAAIDIACFDIMGKKLNQPVYQLIGGRYHEEFPVTHVLSIADPENMAEEAASMIQKGYQSFKMKVGTNVKEDVKRIEAVRERVGNDIAIRVDVNQGWKNSANTLTALRSLGHLNIDWIEQPVIADDIDAMAHIRSKTDLPLMIDEGLKSSREMRQIIKLEAADKVNIKLMKCGGIYPAVKLAHQAEMAGIECQVGSMVESSVASSAGFHVAFSKKIITSVELTGPLKFTKDIGNLHYDVPFIRLNEKPGLGIEINEDTLQELTVFQDIVR”, the “soluble on expression in E. coli” value is “soluble”.

On to “MKITHCKLKKEVQKEPLRSFVPEVTARSAADILGIHPDSAALFYRKIRTVTNHRLALAADEVFECPAGPGASCFGVRRKGRRGRGAAGKAVVFGIPKRNGRAYTVAEDDAEPETLPPAVKKKIMPDGIVYADSPGSRGKSDAGGFTRCRINRSKEFADRRNHINGIGNFWNQAKRALRKYNGIDRKPFPPLLRECEFRFNFGTPSRQLKILRDRCGILEHHHHHH”, for which the “soluble on expression in E. coli” value was “soluble”.

Turning to “MKIVLIGAGNVATHLGIALQKAGCLILQVYSRTEESASALAARLSVDYTIVPDEIRRDADLYIVALKDAVLRQLAPVLVKGREQALFVHTAGSMSMDLWKGLVKRYGVLYPMQTFSKQREVDFNTVPFFIEASAPAEVELLRMVAVRLSPKVYEVTSGQRRYLHLAAVFACNFANHMYALSSHILEKQGIPFEVMLPLIDETAGKVHELSPTQAQTGPAVRYDENVISKHLEMLADEESLQELYEKISKSIHNLPLSVIQANKEGKNS”, the “soluble on expression in E. coli” value is on record as “not soluble”.

As to “MKIYIEGYGCTLNTADTQIIKNSVNEFEDFELTDNVDDSDIIVINTCIVRQETEHRMISRIEYFKSLDKKVVVAGCMAKALSKKIENLADVLIMPREAQHSGNILKDKLLKDFSEKNNESTQNLNFEDKLNEKIKKVSSQGLITALPICEGCLGSCTYCIVKRARGNLASYDRDLIVKKAEELVKSGTKCLLVTAQDTACYGLDNNDSLPNLINDISEIPEKFAMRIGMMHAKFAEPILDELIESFKSEKVVKFLHLPIQSGDDQVLKDMNRNYTVDEYISVLNEFKSKIKNLNFTTDVIVGFPTETEEAFENTLEIVKKIKPDFTHAAKYSQRKYTKAAILKQVDTKIRKERSEILNELRRELSYENNKRHIGETFEILVTKDNMGVTDNCKNVIFEEPAKIGEFKRVKITGAKTFGLSGKLINLEHHHHHH”, the “soluble on expression in E. coli” value was “soluble”.

For “MKKEHLKFVIDSRCFRGSCVTSMSDGIHCDYYGSTLEELKKQENNPFLVAVTRNAIHKRSRIHDKSLCRPFREITEENYYNCMNELPPVRLKHHSFFFGEPYHGSLYMFCFTIGKRFFRGLRPVMTPQAELERQMNEHYHNITFKGKVTKGKAERITSKDKQEIITIPYSFTDKENRERFICNMVTGGNDGGDTCKARKDMTNILLSLRKHHFLYFSGYGRHDDMETLLDEVEEKRYTIITSGCLFQFPPCRDSVSFTGSVKETGENFFYRIYDRELFLHIMHRLRAVKREKTPAEAKAVLPKCKCYE”, the “soluble on expression in E. coli” value is given as “not soluble”.

“MKKFDGVIFDMDGLLFDTELIYYTSTQKVADAMGLPYSKEVYLDYVGISDEEVQENYRRIYASYGHDTVEEFIRRSYDDTLQEFRSGNVPLKPGVVEFLDFLDDQKIPRLVASSNVRPAIEMLLSHAGIQDRFVGIVSAEDVKRAKPDPEIFQKARQLLGTEAPKTLIFEDSFHGVSAAHSAGIPVIMVPDLLQPTEVIQEKTLHVLESLHQAPHYLK”: the “soluble on expression in E. coli” value is “not soluble”.

As to “MKKHDGIIVLLSGGMDSATLLWLAKREFKKVYAISFDYGQRHKVELKYAKELAKLAEVEDHFIVQVPFYTSLKGSALIDESVEVPKGEYPENEPPVTTVPMRNLIFLSIASAFADNLEVNYIGIGVHALDTPYPDCRPEFITAAEAAINAGSTFVAKKKERMHVYAPFLGMSKRDIALLGKELGVPFEKTYSCYMGTEPPCGECPTCIQREEALRGIL”, the “soluble on expression in E. coli” value was “soluble”.

Regarding “MKKHHHHHHEDFHGIDIVINHRLKTSLEEGKVLEKTVPDLNNCKENYEFLIKWTDESHLHNTWETYESIGQVRGLKRLDNYCKQFIIEDQQVRLDPYVTAEDIEIMDMERERRLDEFEEFHVPERIIDSQRASLEDGTSQLQYLVKWRRLNYDEATWENATDIVKLAPEQVKHFQKK”, the “soluble on expression in E. coli” value was “soluble”.

On to “MKKIEIFDPAMCCPTGLCGTNINPELMRIAVVIESLKKQGIIVTRHNLRDEPQVYVSNKTVNDFLQKHGADALPITLVDGEIAVSQTYPTTKQMSEWTGVNLD”, for which the “soluble on expression in E. coli” value is given as “soluble”.

With “MKKLKVMTVFGTRPEAIKMAPLVLELKKYPEIDSYVTVTAQHRQMLDQVLDAFHIKPDFDLNIMKERQTLAEITSNALVRLDELFKDIKPDIVLVHGDTTTTFAGSLAAFYHQIAVGHVEAGLRTGNKYSPFPEELNRQMTGAIADLHFAPTGQAKDNLLKENKKADSIFVTGNTAIDALNTTVRDGYSHPVLDQVGEDKMILLTAHRRENLGEPMENMFKAIRRIVGEFEDVQVVYPVHLNPVVREAAHKHFGDSDRVHLIEPLEVIDFHNFAAKSHFILTDSGGVQEEAPSLGKPVLVLRDTTERPEGVEAGTLKLAGTDEENIYQLAKQLLTDPDEYKKMSQASNPYGDGEASRRIVEELLFHYGYRKEQPDSFTGKGSHHHHHH”, the “soluble on expression in E. coli” value is “soluble”.

For “MKKLSGIIVLLLAGAALYLALKTSPIDPLAWDAPAAPQMTGVLEPNDTLMKAELLGQGQLHGPEDTAVDSQGRVYAGLADGRVVRLDASGKVETFVDTGGRPLGMDFDAAGNLILADAWKGLLRIDPQGKVETLATEADSVPFAFTDDLDIASDGRIYFSDASSKFHQPDYILDLLEARPHGRLLRYDPSTGKTEVLLKDLYFANGVALSANEDFVLVNETYRYRITRYWLKGEKAGQHEVFIDNLPGLPDNLQGDRKGTFWVALPTPRKADADFLHRHPWLKAQLAKLPRMFLPKPTAYGLVIAIDEQGRIVRSLHDTSGHHLRMITSAKPVGDQLYFGSLENDRIGRLAIPLEHHHHHH”, the “soluble on expression in E. coli” value was “soluble”.

Turning to “MKKLYGVIGNPIGHSMSPDIHNASLKDLGLDGHYHAFKVEENDLEDAVKGIRALGVQGINVTVPHKVSIMDYLDHIDESAKVLGAVNTVRREGDKLVGYNTDGEGFVKSLMKVLDKPISELSFLMIGAGGAARAIFTTFVRNTPKKFDICNRTLEKAKRLTEATPSFHNKEVLSIKEAEERLEQYDVIIHTTSVGMYPNVDDVPLSLQRAASSAVVCDIVYNPIQTALLKEASQKGLKTLDGVGMFVEQAALSFQLWTGQEPNIEKMRSIVIGKLGGTECLEHHHHHH”, the “soluble on expression in E. coli” value is “soluble”.

These data come from the DeepSol protein solubility set.
